The text below walks through data of the RNAGym collection of RNA variant scans (doi:10.7554/elife.90254).

B1: LINE1-mini (parent)
chain: GGCAGAGCUCAACACAGCGUGGCAAAGUGGCUGUGGCUAGACUGCC

Variants of B1 are the subject of this series. As to the kind of experiment: self-cleavage, relative activity (ratio to wild type); higher = more cleavage; in vitro, sequencing; the parent is a self-cleaving ribozyme.
Turning to GGCAGAGCUCAACACAACGUGGCAAAGUGGCUGUGGCUAGAGUGCC [G17A C42G], the self-cleavage is 0.12.
For GGCAGAGCUCAACACAACGUGGCAAAGCGGCUGUGGCUAGACUGCC [G17A U28C] the value was 0.97.
For GGCAGAGCUCAACACAACGUGGCAAAGGGGCUGUGGCUAGACUGCC [G17A U28G] the value was 0.1; for GGCAGAGCUCAACACAACGUGGCAAAGAGGCUGUGGCUAGACUGCC [G17A U28A], 0.26.
As for GGCAGAGCUCAACACAACUUGGCAAAGUGGCUGUGGCUAGACUGCC [G17A G19U], the self-cleavage is 0.25.
For the variant GGCAGAGCUCAACACAACAUGGCAAAGUGGCUGUGGCUAGACUGCC [G17A G19A], the self-cleavage came out at 0.62.
As to GGCAGAGCUCAACACAACCUGGCAAAGUGGCUGUGGCUAGACUGCC [G17A G19C], the self-cleavage worked out at 1.09.
On to GGCAGAGCUCAACACAACGUGGCAAAGUGUCUGUGGCUAGACUGCC [G17A G30U], for which the self-cleavage was found to be 0.2.
Consider GGCAGAGCUCAACACAACGUGGCAAAGUGACUGUGGCUAGACUGCC [G17A G30A], for which the self-cleavage turned out to be 0.57.
For GGCAGAGCUCAACACAACGUGGCAAAGUGCCUGUGGCUAGACUGCC [G17A G30C] the value was 0.83.
For GGCAGAGCUCAACACAACGUGGCAAAGUGGCUGCGGCUAGACUGCC [G17A U34C] the value was 0.06; for GGCAGAGCUCAACACAACGUGGCAAAGUGGCUGGGGCUAGACUGCC [G17A U34G], 0.02.
For the variant GGCAGAGCUCAACACAACGUGGCAAAGUGGCUGAGGCUAGACUGCC [G17A U34A], the self-cleavage came out at 0.04.
With GGCAGAGCUCAACACACCGUGGCAAAUUGGCUGUGGCUAGACUGCC [G17C G27U] the figure was 1.06; with GGCAGAGCUCAACACACCGUGGCAAACUGGCUGUGGCUAGACUGCC [G17C G27C], 0.29.
On to GGCAGAGCUCAACACACCGUGGCAAAAUGGCUGUGGCUAGACUGCC [G17C G27A], for which the self-cleavage was 1.06.
For GGCAGAGCUCAACACAACGUGGCAAAGUGGCUGUGGCUAGACCGCC [G17A U43C] the value was 0.05.
With GGCAGAGCUCAACACAACGUGGCAAAGUGGCUGUGGCUAGACGGCC [G17A U43G] the figure was 0.05; with GGCAGAGCUCAACACAACGUGGCAAAGUGGCUGUGGCUAGACAGCC [G17A U43A], 0.08; with GGCAGAGCUCAACACACCGUGGCAAAGUGGCUGUGGCUAGACUGCG [G17C C46G], 0.54.
As for GGCAGAGCUCAACACACCGUGGCAAAGUGGCUGUGGCUAGACUGCA [G17C C46A], the self-cleavage was 0.64.
As for GGCAGAGCUCAACACACCGUGGCAAAGUGGCUGUGGCUAGACUGCU [G17C C46U], the self-cleavage came out at 0.5.
With GGCAGAGCUCAACACACCGUCGCAAAGUGGCUGUGGCUAGACUGCC [G17C G21C] the figure was 0.61.
With GGCAGAGCUCAACACACCGUUGCAAAGUGGCUGUGGCUAGACUGCC [G17C G21U] the figure was 1.65; with GGCAGAGCUCAACACACCGUAGCAAAGUGGCUGUGGCUAGACUGCC [G17C G21A], 1.72; with GGCAGAGCUCAACACACCGUGGCAAAGUGGCUGUGGCUAGAUUGCC [G17C C42U], 0.1.
For the variant GGCAGAGCUCAACACACCGUGGCAAAGUGGCUGUGGCUAGAAUGCC [G17C C42A], the self-cleavage turned out to be 0.05.
For GGCAGAGCUCAACACACCGUGGCAAAGUGGCUGUGGCUAGAGUGCC [G17C C42G] the value was 0.03; for GGCAGAGCUCAACACAACGUGGCAAAGUGGCUGUGGCUAAACUGCC [G17A G40A], 0.06; for GGCAGAGCUCAACACAACGUGGCAAAGUGGCUGUGGCUACACUGCC [G17A G40C], 0.09.
With GGCAGAGCUCAACACAACGUGGCAAAGUGGCUGUGGCUAUACUGCC [G17A G40U] the figure was 0.07; with GGCAGAGCUCAACACAACGUGGCAAAGUGGCUGUGGCUAGACUGUC [G17A C45U], 0.25; with GGCAGAGCUCAACACAACGUGGCAAAGUGGCUGUGGCUAGACUGGC [G17A C45G], 0.04.
As to GGCAGAGCUCAACACAACGUGGCAAAGUGGCUGUGGCUAGACUGAC [G17A C45A], the self-cleavage was 0.13.
With GGCAGAGCUCAACACAACGUGGCAAACUGGCUGUGGCUAGACUGCC [G17A G27C] the figure was 0.19; with GGCAGAGCUCAACACAACGUGGCAAAUUGGCUGUGGCUAGACUGCC [G17A G27U], 0.31.
With GGCAGAGCUCAACACAACGUGGCAAAAUGGCUGUGGCUAGACUGCC [G17A G27A] the figure was 0.42; with GGCAGAGCUCAACACACCGUGGCAAUGUGGCUGUGGCUAGACUGCC [G17C A26U], 1.41.
For GGCAGAGCUCAACACACCGUGGCAACGUGGCUGUGGCUAGACUGCC [G17C A26C] the value was 1.18.
As for GGCAGAGCUCAACACACCGUGGCAAGGUGGCUGUGGCUAGACUGCC [G17C A26G], the self-cleavage came out at 0.07.
With GGCAGAGCUCAACACAACGUGCCAAAGUGGCUGUGGCUAGACUGCC [G17A G22C] the figure was 0.17; with GGCAGAGCUCAACACAACGUGACAAAGUGGCUGUGGCUAGACUGCC [G17A G22A], 0.32.
For the variant GGCAGAGCUCAACACAACGUGUCAAAGUGGCUGUGGCUAGACUGCC [G17A G22U], the self-cleavage was 0.54.
Consider GGCAGAGCUCAACACACCGUGGCAUAGUGGCUGUGGCUAGACUGCC [G17C A25U], for which the self-cleavage amounted to 0.87.
For the variant GGCAGAGCUCAACACACCGUGGCACAGUGGCUGUGGCUAGACUGCC [G17C A25C], the self-cleavage was determined as 0.51.
For GGCAGAGCUCAACACACCGUGGCAGAGUGGCUGUGGCUAGACUGCC [G17C A25G] the value was 0.18; for GGCAGAGCUCAACACAACGUGGCAAAGUGGCUGUGGCCAGACUGCC [G17A U38C], 0.12; for GGCAGAGCUCAACACAACGUGGCAAAGUGGCUGUGGCAAGACUGCC [G17A U38A], 0.21.
For GGCAGAGCUCAACACAACGUGGCAAAGUGGCUGUGGCGAGACUGCC [G17A U38G], the self-cleavage is 0.04.
For GGCAGAGCUCAACACACCGUGGCAAAGUGGCUGUGGGUAGACUGCC [G17C C37G] the value was 0.04; for GGCAGAGCUCAACACACCGUGGCAAAGUGGCUGUGGAUAGACUGCC [G17C C37A], 0.07.
Take GGCAGAGCUCAACACACCGUGGCAAAGUGGCUGUGGUUAGACUGCC [G17C C37U]: the self-cleavage stood at 0.08.
As for GGCAGAGCUCAACACAACGUGGCAAAGUGGCUGUGUCUAGACUGCC [G17A G36U], the self-cleavage stood at 0.05.
As for GGCAGAGCUCAACACAACGUGGCAAAGUGGCUGUGACUAGACUGCC [G17A G36A], the self-cleavage is 0.1.
For GGCAGAGCUCAACACAACGUGGCAAAGUGGCUGUGCCUAGACUGCC [G17A G36C] the value was 0.05; for GGCAGAGCUCAACACACCGUGGCAAAGUGGCUGUGGCUAGACUGCC [G17C], 0.79.
